According to patent US20090036374A1:
Each block holds one substance with its values, some of them ahead of it.

Experiments:
[1] = target: hepatocyte growth factor (HGF) (UniProt P14210); experiment: cell-based or functional assay
[2] = target: Met on MDCK II cells (Madin-Darby canine kidney) (canine (cell line MDCK II)) (UniProt Q75ZY9); experiment: cell-based or functional assay

Substance: Met-885-Fc (Met-885 splice variant fused to human IgG1 Fc) (Fc fusion)
- amount of inhibitory protein that gave roughly 50% inhibition of scattering, HGF ~5-7 ng/ml, MDCK and HT115 [1]: 0.1 to 1 µg/mL
- inhibition of HGF-induced Met phosphorylation, A549 and MDA-MB-231 cells, doses higher than 3-10 nM [1]: > 90%
- inhibition of HGF-induced phosphorylation of Met Y1230/4/5, MDA-MB-231 cells, 3 nM variant [1]: > 60%
- inhibition of HGF-induced urokinase upregulation, MDCK II, 10 ng/ml HGF, 3 nM variant [1]: 60 to 80%
- inhibition of HGF-induced urokinase upregulation, MDCK II, 10 ng/ml HGF, doses higher than 10 nM [1]: > 95%
- scattering score, HT115, inhibitor 1 µg/ml, HGF 7 ng/ml [1]: 1 score 1-5
- scattering score, HT115, inhibitor 5 µg/ml, HGF 7 ng/ml [1]: 1 score 1-5
- scattering score, HT115, inhibitor 10 µg/ml, HGF 7 ng/ml [1]: 1 score 1-5
- scattering score, HT115, inhibitor 30 µg/ml, HGF 50 ng/ml [1]: 2 score 1-5
- scattering score, MDCK, inhibitor 1 µg/ml, HGF 5 ng/ml [1]: 2 score 1-5
- scattering score, MDCK, inhibitor 5 µg/ml, HGF 5 ng/ml [1]: 2 score 1-5

Substance: Met-877 His tag protein (Met-877 splice variant with C-terminal Strep II and 8xHis tags) (from UniProt P08581 25-861) (receptor)
- amount of inhibitory protein that gave roughly 50% inhibition of scattering, HGF ~5-7 ng/ml, MDCK and HT115 [1]: 0.1 to 1 µg/mL
- inhibition of HGF-induced Met tyrosine phosphorylation, A431 or A549 cells, 100 µg/ml Met-877, 10 ng/ml HGF [1]: 70%
- inhibition of Met tyrosine phosphorylation, NCI-H441 cells (constitutive phosphorylation), 100 µg/ml Met-877, 10 ng/ml HGF [1]: 40%
- scattering score, HT115, inhibitor 1 µg/ml, HGF 7 ng/ml [1]: 1 score 1-5
- scattering score, HT115, inhibitor 5 µg/ml, HGF 7 ng/ml [1]: 1 score 1-5
- scattering score, HT115, inhibitor 10 µg/ml, HGF 7 ng/ml [1]: 1 score 1-5
- scattering score, HT115, inhibitor 10 µg/ml, HGF 50 ng/ml [1]: 3 score 1-5
- scattering score, HT115, inhibitor 100 µg/ml, HGF 50 ng/ml [1]: 1 score 1-5
- scattering score, MDCK, inhibitor 0.1 µg/ml, HGF 5 ng/ml [1]: 5 score 1-5
- scattering score, MDCK, inhibitor 30 µg/ml, HGF 50 ng/ml [1]: 4 score 1-5
- scattering score, MDCK, inhibitor 100 µg/ml, HGF 50 ng/ml [1]: 3 score 1-5

Substance: Met-934-Fc (Met-934 splice variant fused to human IgG1 Fc) (Fc fusion)
- amount of inhibitory protein that gave roughly 50% inhibition of scattering, HGF ~5-7 ng/ml, MDCK and HT115 [1]: 0.1 to 1 µg/mL
- inhibition of HGF-induced Met phosphorylation, A549 and MDA-MB-231 cells, doses higher than 3-10 nM [1]: > 90%
- inhibition of HGF-induced phosphorylation of Met Y1230/4/5, MDA-MB-231 cells, 3 nM variant [1]: > 60%
- inhibition of HGF-induced urokinase upregulation, MDCK II, 10 ng/ml HGF, 3 nM variant [1]: 60 to 80%
- inhibition of HGF-induced urokinase upregulation, MDCK II, 10 ng/ml HGF, doses higher than 10 nM [1]: > 95%
- scattering score, MDCK, inhibitor 10 µg/ml, HGF 50 ng/ml [1]: 3 score 1-5
- scattering score, MDCK, inhibitor 10 µg/ml, HGF 100 ng/ml [1]: 5 score 1-5
- scattering score, MDCK, inhibitor 30 µg/ml, HGF 50 ng/ml [1]: 2 score 1-5
- scattering score, MDCK, inhibitor 100 µg/ml, HGF 100 ng/ml [1]: 1 score 1-5

Further lines, results first:

- amount of inhibitory protein that gave roughly 50% inhibition of scattering, HGF ~5-7 ng/ml, MDCK and HT115 [1]: 0.1 to 1 µg/mL
- inhibition of HGF-induced Met phosphorylation, A549 and MDA-MB-231 cells, doses higher than 3-10 nM [1]: > 90%
- inhibition of HGF-induced phosphorylation of Met Y1230/4/5, MDA-MB-231 cells, 3 nM variant [1]: > 60%
- inhibition of HGF-induced proliferation of AsPC-1 cells (BrdU incorporation), 10 ng/ml HGF, 877-Fc at 100 and 300 nM [1]: 90%
- inhibition of HGF-induced urokinase upregulation, MDCK II, 10 ng/ml HGF, 3 nM variant [1]: 60 to 80%
- inhibition of HGF-induced urokinase upregulation, MDCK II, 10 ng/ml HGF, 10 nM variant [1]: 80%
- inhibition of HGF-induced urokinase upregulation, MDCK II, 10 ng/ml HGF, doses higher than 10 nM [1]: > 95%
- inhibition of HGF-induced urokinase upregulation, MDCK II, 10 ng/ml HGF, variant at 50 nM or more [1]: > 95%
- scattering score, HT115, inhibitor 0.1 µg/ml, HGF 3 ng/ml [1]: 2 score 1-5
- scattering score, HT115, inhibitor 0.1 µg/ml, HGF 5 ng/ml [1]: 3 score 1-5
- scattering score, HT115, inhibitor 5 µg/ml, HGF 5 ng/ml [1]: 1 score 1-5
- scattering score, HT115, inhibitor 5 µg/ml, HGF 7 ng/ml [1]: 1 score 1-5
- scattering score, HT115, inhibitor 10 µg/ml, HGF 1 ng/ml [1]: 1 score 1-5
- scattering score, HT115, inhibitor 10 µg/ml, HGF 3 ng/ml [1]: 1 score 1-5
- scattering score, HT115, inhibitor 10 µg/ml, HGF 5 ng/ml [1]: 1 score 1-5
- scattering score, HT115, inhibitor 10 µg/ml, HGF 7 ng/ml [1]: 1 score 1-5
- scattering score, HT115, inhibitor 10 µg/ml, HGF 50 ng/ml [1]: 2 score 1-5
- scattering score, HT115, inhibitor 100 µg/ml, HGF 50 ng/ml [1]: 1 score 1-5
- scattering score, MDCK, inhibitor 0.1 µg/ml, HGF 7 ng/ml [1]: 5 score 1-5
- scattering score, MDCK, inhibitor 1 µg/ml, HGF 1 ng/ml [1]: 1 score 1-5
- scattering score, MDCK, inhibitor 1 µg/ml, HGF 5 ng/ml [1]: 3 score 1-5
- scattering score, MDCK, inhibitor 1 µg/ml, HGF 7 ng/ml [1]: 3 score 1-5
- scattering score, MDCK, inhibitor 1 µg/ml, HGF 10 ng/ml [1]: 3 score 1-5
- scattering score, MDCK, inhibitor 5 µg/ml, HGF 10 ng/ml [1]: 2 score 1-5
- scattering score, MDCK, inhibitor 10 µg/ml, HGF 1 ng/ml [1]: 1 score 1-5
- scattering score, MDCK, inhibitor 10 µg/ml, HGF 5 ng/ml [1]: 1 score 1-5
- scattering score, MDCK, inhibitor 10 µg/ml, HGF 7 ng/ml [1]: 1 score 1-5
- scattering score, MDCK, inhibitor 10 µg/ml, HGF 10 ng/ml [1]: 1 score 1-5
- scattering score, MDCK, inhibitor 10 µg/ml, HGF 30 ng/ml [1]: 2 score 1-5
- scattering score, MDCK, inhibitor 30 µg/ml, HGF 10 ng/ml [1]: 1 score 1-5
- scattering score, MDCK, inhibitor 30 µg/ml, HGF 30 ng/ml [1]: 1 score 1-5
- scattering score, MDCK, inhibitor 30 µg/ml, HGF 100 ng/ml [1]: 2 score 1-5
- scattering score, MDCK, inhibitor 100 µg/ml, HGF 100 ng/ml [1]: 1 score 1-5
Substance: Met-877-Fc (Met-877 splice variant fused to human IgG1 Fc) (Fc fusion)

- scattering score, MDCK, no inhibitor, HGF 5-100 ng/ml [2]: 5 score 1-5
Substance: hepatocyte growth factor (HGF) (from UniProt P14210 32-728) (ligand)
